# Test results from paper PMC10458530, “Synthesis and Evaluation of ePSMA-DM1: A New Theranostic Small-Molecule Drug Conjugate (T-SMDC) for Prostate Cancer” (Pharmaceuticals, 2023).
# Where two headings read alike, the source gives them in different places. Non-standard residues stand in square brackets, D forms with d. Residues, ends and D or L forms follow the SMILES beside them. *: point of attachment. Propanoyl(3-SS-DM1) = COc1cc2cc(c1Cl)N(C)C(=O)C[C@H](OC(=O)[C@H](C)N(C)C(=O)CCSSCCC(=O)*)[C@]1(C)O[C@H]1[C@H](C)[C@@H]1C[C@@](O)(NC(=O)O1)[C@H](OC)/C=C/C=C(\C)C2; DOTA = O=C(O)CN1CCN(CC(=O)O)CCN(CC(=O)*)CCN(CC(=O)O)CC1; EuK = O=C(O)CC[C@H](NC(=O)N[C@@H](CCCCN*)C(=O)O)C(=O)O; Sta = CC(C)C[C@H](N)[C@@H](O)CC(=O)O; Ahx = NCCCCCC(=O)O
# Legend:
# [1] = LogD7.4 by shake-flask method; format: physicochemical; settings: PBS pH 7.4/n-octanol
# Method: The distribution coefficients (LogD7.4 values) were determined by the shake-flask method, in which 2 μL (~0.5 MBq) of [^111In]In-ePSMA-DM1 was added to an Eppendorf tube containing 1 mL of PBS (0.01 M, pH 7.4)/n-octanol (v/v, 1:1). After vigorous vortexing, the solution was centrifuged at 2500 g for 3 min for phase separation. The n-octanol phase was separated from the PBS phase into a new Eppendorf tube and centrifuged for 15 min. Samples (3 × 10 μL) of the two phases were taken out and measured in the γ-counter. LogD7.4 values were calculated by using the following equation: LogD7.4 = log [(counts in octanol phase)/(counts in aqueous phase)] and the experiment was performed in triplicate.
# [2] = Ex vivo biodistribution; format: in vivo, mouse; settings: male, mouse, intravenous, total radioactivity; for tissue uptake at 1 h: 1 h p.i.; for tissue uptake at 4 h: 4 h p.i.; for tissue uptake at 24 h: 24 h p.i.
# Method: Animal experiments were performed using male BALB/c nude mice (8–10 weeks old; Janvier Labs, Le Genest-Saint-Isle, France). Animals were housed in individually ventilated cages (Blue line IVC, 2 mice per cage) under sterile standard conditions with cage enrichments present and free access to animal chow (Sniff GmbH, Soest, Germany) and water. They were acclimated for 1 week prior to experiments. Mice were subcutaneously inoculated with 4.0 × 10^6 LS174T cells in the right flank diluted in 100 μL of cell suspension […]. The average tumor volume size per group (n = 4) was of 206.2 ± 7.9 mm^3 (average weight of 105.8 ± 7.3 mg) after non-blinded grouping to enable homogenous tumor size distribution. [^111In]In-ePSMA-DM1 was injected intravenously via the tail vein. All experiments were approved by the institutional Animal Welfare Committee and were conducted in accordance to the guidelines of the Revised Dutch Act on Animal Experimentation (WOD).
# Mice were intravenously injected with ~1 nmol of [^111In]In-ePSMA-DM1 (5 MBq). Mice (n = 4/timepoint) were euthanized by cervical dislocation at 1, 4 and 24 h p.i. A block group (co-injection of 50 nmol of PSMA-617) was included, and mice were euthanized at 4 h p.i. Organs (blood, heart, lungs, liver, spleen, stomach, intestines, pancreas, kidneys, muscle, skin, bone and prostate) and the tumors were collected in pre-weighed tubes, weighed after organ collection, and measured in the γ-counter, for which the calibration factor was determined by measuring different known activities of In-111. Activity was corrected for decay, and uptake was expressed as percentage of the injected dose per gram of the tissue (% ID/g). The biological half-lives in tissues of [^111In]In-ePSMA-DM1 were determined using a one-phase decay algorithm in GraphPad Prism 9.0 (GraphPad Software, Boston, MA, USA).
# [3] = BALB/c nude (BALB/c nu/nu), blood, 1 nmol, read-out: uptake in blood
# [4] = BALB/c nude (BALB/c nu/nu), heart, 1 nmol, read-out: uptake in heart
# [5] = BALB/c nude (BALB/c nu/nu), kidney, 1 nmol, read-out: uptake in kidney
# [6] = BALB/c nude (BALB/c nu/nu), liver, 1 nmol, read-out: uptake in liver
# [7] = BALB/c nude (BALB/c nu/nu), lung, 1 nmol, read-out: uptake in lung
# [8] = BALB/c nude (BALB/c nu/nu), muscle, 1 nmol, read-out: uptake in muscle
# [9] = BALB/c nude (BALB/c nu/nu), pancreas, 1 nmol, read-out: uptake in pancreas
# [10] = BALB/c nude (BALB/c nu/nu), skin, 1 nmol, read-out: uptake in skin
# [11] = BALB/c nude (BALB/c nu/nu), spleen, 1 nmol, read-out: uptake in spleen
# [12] = BALB/c nude (BALB/c nu/nu), stomach, 1 nmol, read-out: uptake in stomach
# [13] = BALB/c nude (BALB/c nu/nu), tumor, 1 nmol, read-out: uptake in tumor
# [14] = BALB/c nude (nu/nu), bone, 1 nmol, read-out: uptake in bone
# [15] = BALB/c nude (nu/nu), intestines, 1 nmol, read-out: uptake in intestines
# [16] = BALB/c nude (nu/nu), prostate, 1 nmol, read-out: uptake in prostate
smiles,measurement,setting,value
"COc1cc2cc(c1Cl)N(C)C(=O)C[C@H](OC(=O)[C@H](C)N(C)C(=O)CCSSCCC(=O)NCCCC[C@H](NC(=O)CN1CCN(CC(=O)O)CCN(CC(=O)O)CCN(CC(=O)O)CC1)C(=O)N[C@@H](CC(=O)O)C(=O)N[C@@H](Cc1ccccc1)C(=O)N[C@@H](CC(C)C)[C@@H](O)CC(=O)NCCCCCC(=O)NCCCC[C@H](NC(=O)N[C@@H](CCC(=O)O)C(=O)O)C(=O)O)[C@]1(C)O[C@H]1[C@H](C)[C@@H]1C[C@@](O)(NC(=O)O1)[C@H](OC)/C=C/C=C(\C)C2 [[^111In]In-ePSMA-DM1, metal not drawn] ({DOTA}-K(Propanoyl(3-SS-DM1))DF[Sta][Ahx]-EuK)",logD,[1],-2.47 ± 0.11
same,tissue uptake at 1 h,[2]; [3],1.43 ± 0.04 %ID/g
same,tissue uptake at 4 h,[2]; [3],0.37 ± 0.01 %ID/g
same,tissue uptake at 24 h,[2]; [3],0.04 %ID/g
same,tissue uptake at 4 h,"[2]; BALB/c nude (BALB/c nu/nu), blood, block (co-injection of PSMA-617), read-out: uptake in blood",0.3 ± 0.04 %ID/g
same,tissue uptake at 1 h,[2]; [4],0.65 ± 0.1 %ID/g
same,tissue uptake at 4 h,[2]; [4],0.23 ± 0.04 %ID/g
same,tissue uptake at 24 h,[2]; [4],0.1 ± 0.02 %ID/g
same,tissue uptake at 4 h,"[2]; BALB/c nude (BALB/c nu/nu), heart, block (co-injection of PSMA-617), read-out: uptake in heart",0.18 %ID/g
same,tissue uptake at 1 h,[2]; [5],34 ± 2.54 %ID/g
same,tissue uptake at 4 h,[2]; [5],31.6 ± 1.78 %ID/g
same,tissue uptake at 24 h,[2]; [5],13.2 ± 0.95 %ID/g
same,tissue uptake at 4 h,"[2]; BALB/c nude (BALB/c nu/nu), kidney, block (co-injection of PSMA-617), read-out: uptake in kidney",24 ± 1.46 %ID/g
same,tissue uptake at 1 h,[2]; [6],0.68 %ID/g
same,tissue uptake at 4 h,[2]; [6],0.63 ± 0.02 %ID/g
same,tissue uptake at 24 h,[2]; [6],0.39 ± 0.04 %ID/g
same,tissue uptake at 4 h,"[2]; BALB/c nude (BALB/c nu/nu), liver, block (co-injection of PSMA-617), read-out: uptake in liver",0.56 ± 0.05 %ID/g
same,tissue uptake at 1 h,[2]; [7],1.34 ± 0.18 %ID/g
same,tissue uptake at 4 h,[2]; [7],0.4 ± 0.03 %ID/g
same,tissue uptake at 24 h,[2]; [7],0.25 ± 0.12 %ID/g
same,tissue uptake at 4 h,"[2]; BALB/c nude (BALB/c nu/nu), lung, block (co-injection of PSMA-617), read-out: uptake in lung",0.51 ± 0.26 %ID/g
same,tissue uptake at 1 h,[2]; [8],0.3 ± 0.06 %ID/g
same,tissue uptake at 4 h,[2]; [8],0.21 ± 0.16 %ID/g
same,tissue uptake at 24 h,[2]; [8],0.07 ± 0.01 %ID/g
same,tissue uptake at 4 h,"[2]; BALB/c nude (BALB/c nu/nu), muscle, block (co-injection of PSMA-617), read-out: uptake in muscle",0.1 ± 0.01 %ID/g
same,tissue uptake at 4 h,[2]; [9],0.17 ± 0.01 %ID/g
same,tissue uptake at 24 h,[2]; [9],0.09 ± 0.01 %ID/g
same,tissue uptake at 4 h,"[2]; BALB/c nude (BALB/c nu/nu), pancreas, block (co-injection of PSMA-617), read-out: uptake in pancreas",0.14 ± 0.02 %ID/g
same,tissue uptake at 1 h,[2]; [10],1.37 ± 0.29 %ID/g
same,tissue uptake at 4 h,[2]; [10],0.75 ± 0.12 %ID/g
same,tissue uptake at 1 h,[2]; [11],1.32 ± 0.28 %ID/g
same,tissue uptake at 4 h,[2]; [11],0.47 ± 0.08 %ID/g
same,tissue uptake at 24 h,[2]; [11],0.27 ± 0.01 %ID/g
same,tissue uptake at 4 h,"[2]; BALB/c nude (BALB/c nu/nu), spleen, block (co-injection of PSMA-617), read-out: uptake in spleen",0.32 ± 0.02 %ID/g
same,tissue uptake at 1 h,[2]; [12],0.8 ± 0.61 %ID/g
same,tissue uptake at 4 h,[2]; [12],0.47 ± 0.32 %ID/g
same,tissue uptake at 4 h,[2]; [13],1.19 ± 0.22 %ID/g
same,tissue uptake at 24 h,[2]; [13],0.5 ± 0.14 %ID/g
same,tissue uptake at 4 h,"[2]; BALB/c nude (BALB/c nu/nu), tumor, block (co-injection of PSMA-617), read-out: uptake in tumor",0.8 ± 0.31 %ID/g
same,tissue uptake at 1 h,[2]; [14],0.73 ± 0.27 %ID/g
same,tissue uptake at 4 h,[2]; [14],0.41 ± 0.06 %ID/g
same,tissue uptake at 24 h,[2]; [14],0.3 ± 0.03 %ID/g
same,tissue uptake at 4 h,"[2]; BALB/c nude (nu/nu), bone, block (co-injection of PSMA-617), read-out: uptake in bone",0.33 ± 0.04 %ID/g
same,tissue uptake at 1 h,[2]; [15],0.56 ± 0.19 %ID/g
same,tissue uptake at 4 h,[2]; [15],0.45 ± 0.2 %ID/g
same,tissue uptake at 24 h,[2]; [15],0.12 ± 0.03 %ID/g
same,tissue uptake at 4 h,"[2]; BALB/c nude (nu/nu), intestines, block (co-injection of PSMA-617), read-out: uptake in intestines",0.56 ± 0.35 %ID/g
same,tissue uptake at 1 h,"[2]; BALB/c nude (nu/nu), pancreas, 1 nmol, read-out: uptake in pancreas",0.43 ± 0.11 %ID/g
same,tissue uptake at 1 h,[2]; [16],1.92 ± 0.87 %ID/g
same,tissue uptake at 4 h,[2]; [16],0.46 ± 0.19 %ID/g
same,tissue uptake at 24 h,[2]; [16],0.16 ± 0.03 %ID/g
same,tissue uptake at 4 h,"[2]; BALB/c nude (nu/nu), prostate, block (co-injection of PSMA-617), read-out: uptake in prostate",0.4 ± 0.18 %ID/g
same,tissue uptake at 24 h,"[2]; BALB/c nude (nu/nu), skin, 1 nmol, read-out: uptake in skin",0.44 ± 0.05 %ID/g
same,tissue uptake at 4 h,"[2]; BALB/c nude (nu/nu), skin, block (co-injection of PSMA-617), read-out: uptake in skin",0.57 ± 0.19 %ID/g
same,tissue uptake at 24 h,"[2]; BALB/c nude (nu/nu), stomach, 1 nmol, read-out: uptake in stomach",0.05 ± 0.02 %ID/g
same,tissue uptake at 4 h,"[2]; BALB/c nude (nu/nu), stomach, block (co-injection of PSMA-617), read-out: uptake in stomach",0.3 ± 0.24 %ID/g
same,tissue uptake at 1 h,"[2]; BALB/c nude (nu/nu), tumor, 1 nmol, read-out: uptake in tumor",2.39 ± 0.29 %ID/g
